Target: Taliglucerase alfa (recombinant GCase) (human) (UniProt P04062)
Experiment: AUC

- population of the dimer species: 47%
- stoichiometry N: 2
Substance: Taliglucerase alfa (recombinant GCase) (from UniProt P04062 40-536) (enzyme)

From paper PMC4361889
